Measurements: US20250282879A1 (CILAG GMBH INTERNATIONAL, published 2025)

T1: recombinant human IL-31 protein (Peprotech) (human, UniProt Q6EBC2 24-164)
T1 sequence (looked up): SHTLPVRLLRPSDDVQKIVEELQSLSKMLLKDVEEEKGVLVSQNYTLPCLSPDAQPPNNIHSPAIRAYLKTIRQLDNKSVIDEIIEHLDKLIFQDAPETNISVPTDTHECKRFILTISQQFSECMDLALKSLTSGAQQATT

T2: human IL-31-His (human, UniProt Q6EBC2 24-164)
T2 construct: captured via an anti-His tag antibody; also called human IL-31 (scFv SPR); not shown: His tag
T2 sequence (looked up): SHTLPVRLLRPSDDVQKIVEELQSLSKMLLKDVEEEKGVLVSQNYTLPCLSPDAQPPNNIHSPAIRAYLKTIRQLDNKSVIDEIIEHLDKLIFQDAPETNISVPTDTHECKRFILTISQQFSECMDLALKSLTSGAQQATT


How the values were obtained:
[1] = biological target: T1, recombinant human IL-31 protein …; test: cell-based or functional assay
[2] = biological target: T3, human IL-4R on transfected HEK293T cells (human, UniProt P24394 26-825); test: flow cytometry, transfected HEK293T cells
T3 construct: whole, on cells; also called human IL-4R-expressing HEK293T cells; not shown: V5 Tag fused to the N-terminus of the expression construct
Excerpt: (§1) To test binding of the Morrison-H and Morrison-L antibodies PRO2198, PRO2199, PRO2206 and PRO2207 to human or cynomolgus IL-4R-expressing HEK293T cells, HEK293T cells were transfected with human and cynomolgus IL-4R plasmids and mock plasmid using Lipofectamine3000. Binding of an antibody targeting V5 Tag, which is fused to the N-terminus of human and cynomolgus IL-4R expression constructs, would confirm successful expression of both targets and was thus used as a positive control for plasma membranous binding. The Morrison-H molecule PRO2077 was used as negative control for cynomolgus IL-4R binding since this molecule had not shown any cross-reactivity to cynomolgus IL-4R (see section 5.3.).
(§2) 50,000 transfected HEK293T cells per well were seeded in a 96-well plate. 5-fold serial dilutions of the Morrison-H and Morrison-L antibodies PRO2198, PRO2199, PRO2206 and PRO2207 and of the control molecule PRO2077, which is not cross-reactive to cynomolgus IL-4R, were added at concentrations ranging from 5,000 to 0.32 ng/ml to the plates and incubated for 60 min at 4° C. on a shaker. Supernatants were removed and detection reagent was added for flow cytometry analysis. The geometric mean of the APC fluorescence intensity of single cells was calculated.

[3] = biological target: T4, cynomolgus IL-4R on transfected HEK293T cells (cynomolgus monkey, UniProt A0A2K5V580 33-832); test: flow cytometry, transfected HEK293T cells
T4 construct: whole, on cells; also called cynomolgus IL-4R-expressing HEK293T cells; not shown: V5 Tag fused to the N-terminus of the expression construct
Excerpt: as §1, §2

[4] = biological target: T5, human IL-4R on cells (HEK-Blue IL-4/IL-13 cells, human PBMC, human whole blood) (human, UniProt P24394 26-825); test: cell-based or functional assay
[5] = biological target: T6, recombinant cynomolgus monkey IL-4R (ECD with His-tag, Acro Biosystems) (cynomolgus monkey, UniProt A0A2K5V556 26-232); test: SPR, Morrison captured via anti-human IgG-Fc, IL-4R ECD-His analyte
T6 construct: bought; also called cynomolgus IL-4R
Method: (§3) Binding kinetics (including affinity) of the bispecific Morrison-H (PRO2198, PRO2199) and Morrison-L (PRO2206, PRO2207) molecules to recombinant human IL-4R protein (ECD with His Tag, Sino Biological) were determined by SPR analysis on a T200 device (Biacore, Cytiva). In this SPR experiment, Morrison molecules were captured via an anti-human IgG-Fc antibody (Human Antibody Capture Kit; Biacore, Cytiva) covalently immobilized to a carboxylmethylated dextran surface (CM5 sensorchip; Biacore, Cytiva) and a titration series of human IL-4R ECD was injected as analyte. After each analyte injection cycle, the sensor chip was regenerated (MgCl₂), and new Morrison antibody was subsequently re-captured. […] The apparent dissociation (kd) and association (kₐ) rate constants and the apparent dissociation equilibrium constant (KD) were calculated with the Biacore analysis software (Biacore Evaluation software Version 3.2, Cytiva) using one-to-one Langmuir binding model and quality of the fits was monitored based on Chi2 and U-value, which are measures for the quality of the curve fitting. The binding level was calculated as the maximum stability binding achieved normalized to the theoretical Rmax. Cross-reactivity to cynomolgus monkey IL-4R was measured using the same setup as for the analysis of human IL-4R kinetics, with the difference that recombinant cynomolgus monkey IL-4R (ECD with His-tag, Acro Biosystems) protein was used as analyte instead of human IL-4R.

[6] = biological target: T7, recombinant human IL-4R protein (ECD with His Tag, Sino Biological) (human, UniProt P24394 26-232); test: as above
T7 construct: extracellular domain; bought; also called human IL-4R ECD; not shown: His Tag
Method: as §3

[7] = biological target: T8, recombinant cynomolgus monkey IL-31 (ECD with His Tag, Sino Biological) (cynomolgus monkey); test: SPR, Morrison captured on immobilized human IL-4R-Fc, IL-31 analyte, single-cycle
T8 construct: manufactured on demand by Sino Biological; also called cynomolgus IL-31-His; cyno IL-31
Method: (§4) Binding kinetics (including affinity) of the bispecific Morrison-H (PRO2198, PRO2199) and Morrison-L (PRO2206, PRO2207) molecules to recombinant human IL-31 protein (Peprotech) were determined by SPR analysis on a T200 device (Biacore, Cytiva). In this SPR experiment, Morrison antibodies were injected over a carboxylmethylated dextran surface (CM5 sensorchip; Biacore, Cytiva) immobilized with human recombinant IL-4R protein (ECD with Fc Tag, R&D Systems) and a titration series of human IL-31 was injected as analyte. […] The calculation of the kinetics and the apparent dissociation equilibrium constant (KD) as well as the measurement for the quality of curve fitting were done as described above for IL-4R. The binding level was calculated as the maximum stability binding achieved normalized to the theoretical Rmax. Cross-reactivity to cynomolgus monkey IL-31 was measured using the same setup as for the analysis of human IL-31 affinities, with the difference that recombinant cynomolgus monkey IL-31 (ECD with His Tag, Sino Biological) protein was used as analytes instead of human IL-31.
(§5) After having shown a stable capture of Morrison antibodies via recombinant human IL-4R protein, IL-31 was injected as analyte and the kinetics of the binding of IL-31 to captured Morrison molecules were calculated.

[8] = biological target: T1, recombinant human IL-31 protein …; test: as above
Method: as §4, §5

[9] = biological target: T5, human IL-4R on cells (HEK-Blue …); test: cell-based or functional assay; remark: listed apart in the source
[10] = biological target: T5, human IL-4R on cells (HEK-Blue …); test: cell-based or functional assay; remark: listed apart in the source
human IL-31-His = biological target: T2, human IL-31-His; test: SPR, IL-31-His captured, scFv analyte (30 and 10 nM)
Method: Affinity of the two humanized scFvs to human and cynomolgus IL-31 was determined by SPR analysis on a T200 device (Biacore, GE Healthcare). Cynomolgus IL-31 was manufactured on demand by Sino Biological since it was not available commercially. Human and cynomolgus IL-31-His was captured via an anti-His tag antibody coupled to a carboxylmethylated dextran surface and the scFvs were injected as analyte. After each analyte injection cycle the sensor chip was regenerated and new antigen was captured. The scFvs were measured using a dose response multi-cycle kinetic assay in a high-throughput mode with two concentrations (30 and 10 nM) diluted in running buffer. Obtained sensorgrams were fitted using a 1:1 binding model.
Affinity of PRO1643 and of the optimized anti-IL-31 scFvs to human IL-31 was determined by SPR analysis on a T200 device (Biacore, GE Healthcare), as described above in section 2.2.2. The scFvs were measured using a dose response multi-cycle kinetic assay in a high-throughput mode with two concentrations (30 and 10 nM) diluted in running buffer. Obtained sensorgrams were fitted using a 1:1 binding model.

T6 sequence (A0A2K5V556 entry or part of it limits assumed): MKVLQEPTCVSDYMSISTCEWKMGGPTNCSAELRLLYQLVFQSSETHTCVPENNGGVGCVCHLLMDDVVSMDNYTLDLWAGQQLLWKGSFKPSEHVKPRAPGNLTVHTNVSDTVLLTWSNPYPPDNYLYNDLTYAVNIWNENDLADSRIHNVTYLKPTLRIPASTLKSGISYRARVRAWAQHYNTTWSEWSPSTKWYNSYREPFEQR
T4 sequence (A0A2K5V580 entry or part of it): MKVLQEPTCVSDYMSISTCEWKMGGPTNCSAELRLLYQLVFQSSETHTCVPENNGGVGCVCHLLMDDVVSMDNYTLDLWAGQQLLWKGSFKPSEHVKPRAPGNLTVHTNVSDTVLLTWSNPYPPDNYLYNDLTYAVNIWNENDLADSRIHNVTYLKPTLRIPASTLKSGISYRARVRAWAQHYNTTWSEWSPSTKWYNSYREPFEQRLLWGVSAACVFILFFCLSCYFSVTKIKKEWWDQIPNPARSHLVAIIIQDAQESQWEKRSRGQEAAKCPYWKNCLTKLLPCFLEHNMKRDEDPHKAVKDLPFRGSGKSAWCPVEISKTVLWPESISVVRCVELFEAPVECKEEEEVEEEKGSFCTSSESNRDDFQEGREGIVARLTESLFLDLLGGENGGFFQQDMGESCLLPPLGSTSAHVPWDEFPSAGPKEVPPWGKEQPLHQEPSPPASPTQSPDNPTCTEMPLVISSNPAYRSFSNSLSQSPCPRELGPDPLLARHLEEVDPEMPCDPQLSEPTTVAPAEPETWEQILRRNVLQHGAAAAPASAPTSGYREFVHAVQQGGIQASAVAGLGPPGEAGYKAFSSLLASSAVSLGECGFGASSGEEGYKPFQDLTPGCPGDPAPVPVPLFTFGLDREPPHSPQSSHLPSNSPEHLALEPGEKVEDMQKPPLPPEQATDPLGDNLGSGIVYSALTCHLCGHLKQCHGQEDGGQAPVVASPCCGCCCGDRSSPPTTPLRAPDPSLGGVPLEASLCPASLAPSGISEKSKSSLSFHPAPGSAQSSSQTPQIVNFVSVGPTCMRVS

IC50 (single analysis), human IL-31-induced signaling, IL-31RA/OSMR dimerization assay [1] [pM]	EC50 [2] [pM]	EC50 [3] [pM]	IC50 (single analysis), human IL-4-induced signaling, stat-6 reporter gene assay [4] [pM]	Kd [5] [pM]	koff [5] [s⁻¹]	kon [5] [M⁻¹ s⁻¹]	Kd [6] [pM]	koff [6] [s⁻¹]	kon [6] [M⁻¹ s⁻¹]	Kd [7] [pM]	koff [7] [s⁻¹]	kon [7] [M⁻¹ s⁻¹]	Kd [8] [pM]	koff [8] [s⁻¹]	kon [8] [M⁻¹ s⁻¹]	IC50 (single analysis), human IL-13-induced signaling, stat-6 reporter gene assay [9] [pM]	IC50, IL-4-induced CD23 expression, memory B cells [10] [pM]	IC50, IL-4-induced CD23 expression, naive B cells [10] [pM]	Kd (human IL-31-His) [pM]	further results	Binder
230	830	900	11.8	209	2.42e-05	116000	47.7	1.95e-05	409000	169	< 1e-05	59300	107	2.36e-05	220000	29.5	4340	1480		IC50, IL-4-induced CD23 expression, monocytes (blood donor 2) [10]: 110 pM	PRO2206 (bispecific antibody, human IgG4 S228P, kappa, IgG4 (S228P) Morrison-L, anti-IL-31 scFv on the C-terminus of the light chain; also called Morrison-L; MorrL) light: DIQMTQSPSSLSARVGDRVTITCQASEDIESYLAWYQQKPGKAPKLLIYRASTLAYGVPSRFSGSGSGRDFTLTISSLQPEDFATYYCLGSSYSTGSNIFGQGTKVEIKRTVAAPSVFIFPPSDEQLKSGTASVVCLLNNFYPREAKVQWKVDNALQSGNSQESVTEQDSKDSTYSLSSTLTLSKADYEKHKVYACEVTHQGLSSPVTKSFNRGECGGGGSGGGGSAFQLTQSPSSLSASVGDRVTITCQASQSIDSWLAWYQQKPGKPPKLLIYQASKLASGVPSRFSGSGSGTDYTLTISSLQPEDFATYYCQTYYGGGHIGWGFGTGTKVTVLGGGGGSGGGGSGGGGSGGGGSQSQLVESGGGRVQPGGSLRLSCAASGFSFSANYWICWVRQAPGKGLEWIVCIYIGSRADTYYAPWAKGRFTISKDNSKNTVYLQMNSLRAEDTATYFCARFSSGIYDLDRFFLWGQGTQVTVSS heavy: not shown
215	600	650	9.4	11	2.77e-05	2.53e+06	189	4.61e-05	244000	164	< 1e-05	60900	152	2.47e-05	163000	12.6	1580	1040		IC50, IL-4-induced CD23 expression, monocytes (blood donor 3) [10]: ~54.5 pM	PRO2207 (bispecific antibody, human IgG4 S228P, kappa, IgG4 (S228P) Morrison-L; also called Morrison-L; MorrL) light: DIQMTQSPSSLSASVGDRVTITCQASEDIESYLAWYQQKPGKAPKLLIYRASTLAYGVPSRFSGSGSGTDFTLTISSLQPEDFATYYCLGSSYSTGSNIFGQGTKVEIKRTVAAPSVFIFPPSDEQLKSGTASVVCLLNNFYPREAKVQWKVDNALQSGNSQESVTEQDSKDSTYSLSSTLTLSKADYEKHKVYACEVTHQGLSSPVTKSFNRGECGGGGSGGGGSAFQLTQSPSSLSASVGDRVTITCQASQSIDSWLAWYQQKPGKPPKLLIYQASKLASGVPSRFSGSGSGTDYTLTISSLQPEDFATYYCQTYYGGGHIGWGFGTGTKVTVLGGGGGSGGGGSGGGGSGGGGSQSQLVESGGGRVQPGGSLRLSCAASGFSFSANYWICWVRQAPGKGLEWIVCIYIGSRADTYYAPWAKGRFTISKDNSKNTVYLQMNSLRAEDTATYFCARFSSGIYDLDRFFLWGQGTQVTVSS heavy: not shown
																			907	koff (human IL-31-His): 0.000599 s⁻¹; kon (human IL-31-His): 661000 M⁻¹ s⁻¹	PRO1900 (scFv, V domains shown, anti-IL-31 scFv; VL entry ends with LCDR3 (no FR4); also called 50-09-D07-sc04) VH: QSQLVESGGGRVQPGGSLRLSCAASGFSFSANYWICWVRQAPGKGLEWIVCIYIGSRADTYYAPWAKGRFTISKDNSKNTVYLQMNSLRAEDTATYFCARFSSGIYDLDRFFLWGQGTQVTVSS V domain: AFQLTQSPSSLSASVGDRVTITCQASQSIDSWLAWYQQKPGKPPKLLIYQASKLASGVPSRFSGSGSGTDYTLTISSLQPEDFATYYCQTYYGGGHIGWGFGTGTKVTV
																			1220	koff (human IL-31-His): 0.000638 s⁻¹; kon (human IL-31-His): 524000 M⁻¹ s⁻¹	PRO1903 (scFv, V domains shown, anti-IL-31 scFv (VL D32E against sc03); Printed VL entry has no FR4; also called 50-09-D07-sc07) VH: QSQLVESGGGLVQPGGSLRLSCAASGFSFSANYWICWVRQAPGKGLEWIVCIYIGSRADTYYAPWAKGRFTISKDNSKNTVYLQMNSLRAEDTAVYFCARFSSGIYDLDRFFLWGQGTLVTVSS V domain: AFQLTQSPSSLSASVGDRVTITCQASQSIESWLAWYQQKPGKPPKLLIYQASKLASGVPSRFSGSGSGTDYTLTISSLQPEDFATYYCQTYYGGGHIGWGFGTGTKVTV
